Substitutions are numbered along the chain they refer to. Names may count otherwise. “And” between values parts separate entries of the source, which are not always exact repeats. Identical values can stand only once.
Columns and labels:
[1] = biological target: T1, human ROR1 protein (ROR1-His; Sino Biological, Catalog #13968-H08H) (human, UniProt Q01973 30-406); assay: ELISA, plate coated with ROR1-His (1 ug/ml), bound antibody detected with HRP-conjugated anti-Fab polyclonal antibody, OD at 450 nm; lower graph and table
T1 construct: extracellular domain; Bought protein; also called human recombinant ROR1 protein
Method: (§1) The binding affinity of the anti-ROR1 antibody-antigen was evaluated using an ELISA-based solution binding assay. Specifically, 96-well microtiter plates (Nunc-Immuno Plates, NUNC) were coated with ROR1 protein (ROR1-His; sino biological, Catalog #13968-H08H) at a concentration of 1 μg/ml in PBS solution at 4° C. for 16 hours, and non-specific binding sites were blocked with 1% (v/v) BSA (bovine serum albumin) for 2 hours.
(§2) Subsequently, on the 96-well microtiter plates, anti-ROR1 antibodies at concentrations stated in FIGS. 1a to 1c were added to the microtiter plates, and their binding capabilities were analyzed by ELISA as follows. Specifically, after incubating at 37° C. for 2 hours, the plates were washed five times with PBS containing 0.05% (v/v) Tween 20, then the HRP-conjugated Fab polyclonal antibody reagent (Pierce, Catalog #31414) was diluted at a 1:30,000 ratio and added to the washed microtiter plates, then reacted for 1 hour at 37° C., then detected the bound anti-ROR1 antibodies. After reaction, the color was developed using TMB (tetramethylbenzidine, Sigma, T0440). The enzymatic reaction was stopped with 0.5 mol/L sulfuric acid, and the absorbance was read at 450 nm and 650 nm using a microplate reader (Molecular Devices).

[2] = biological target: T1, human ROR1 protein (ROR1-His; Sino …); assay: SACE ELISA on human ROR1-His; antibody stored 2 weeks at 4°C; BA6 IgG (WT), stored at 4° C.
Method: as §1
as §2, with “Devices). […]” for “Devices).”

[3] = biological target: T1, human ROR1 protein (ROR1-His; Sino …); assay: ELISA, plate coated with ROR1-His (1 ug/ml), bound antibody detected with HRP-conjugated anti-Fab polyclonal antibody, OD at 450 nm; upper graph and table
Method: as §1, §2

[4] = biological target: T1, human ROR1 protein (ROR1-His; Sino …); assay: SACE ELISA on human ROR1-His; antibody stored 2 weeks at 37°C
Method: as §1
as §2, with “Devices). […]” for “Devices).”

[5] = biological target: T1, human ROR1 protein (ROR1-His; Sino …); assay: ELISA, plate coated with ROR1-His (1 ug/ml), bound antibody detected with HRP-conjugated anti-Fab polyclonal antibody, OD at 450 nm
Method: as §1, §2

[6] = biological target: T1, human ROR1 protein (ROR1-His; Sino …); assay: ELISA, plate coated with ROR1-His (1 ug/ml), bound antibody detected with HRP-conjugated anti-Fab polyclonal antibody, OD at 450 nm; lower graph and table; remark: listed apart in the source
Method: as §1, §2

[7] = biological target: T1, human ROR1 protein (ROR1-His; Sino …); assay: ELISA, plate coated with ROR1-His (1 ug/ml), bound antibody detected with HRP-conjugated anti-Fab polyclonal antibody, OD at 450 nm; upper graph and table; remark: listed apart in the source
Method: as §1, §2

[8] = biological target: T1, human ROR1 protein (ROR1-His; Sino …); assay: SACE ELISA on human ROR1-His
Method: as §1
as §2, with “Devices). […]” for “Devices).”

[9] = biological target: T2, human B7-H3 on CHO-huROR1-huB7-H3 cells (human, UniProt Q5ZPR3 29-534); assay: flow cytometry on CHO-huROR1-huB7-H3 cells, FITC anti-human IgG, MFI over secondary antibody only
T2 construct: whole, on cells; also called cell surface B7-H3
T2 sequence (looked up): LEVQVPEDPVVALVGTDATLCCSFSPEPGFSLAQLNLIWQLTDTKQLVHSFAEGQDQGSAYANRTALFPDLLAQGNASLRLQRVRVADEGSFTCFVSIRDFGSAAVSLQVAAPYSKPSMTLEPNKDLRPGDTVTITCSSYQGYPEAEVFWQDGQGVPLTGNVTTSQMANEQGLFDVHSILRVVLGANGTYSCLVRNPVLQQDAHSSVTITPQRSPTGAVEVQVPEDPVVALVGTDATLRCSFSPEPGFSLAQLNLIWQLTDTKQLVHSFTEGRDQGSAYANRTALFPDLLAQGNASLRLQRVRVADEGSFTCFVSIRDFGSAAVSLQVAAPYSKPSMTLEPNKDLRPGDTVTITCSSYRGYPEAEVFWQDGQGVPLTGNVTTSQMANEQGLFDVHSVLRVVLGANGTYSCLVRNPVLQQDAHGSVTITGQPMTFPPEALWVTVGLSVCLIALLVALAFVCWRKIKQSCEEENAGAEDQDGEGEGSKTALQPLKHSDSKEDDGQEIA
Text: (§3) To evaluate the cell-binding ability of the anti-ROR1/B7-H3 bispecific antibody, cells expressing both ROR1 and B7-H3 were used to compare the cell-binding ability of the bispecific antibody with that of the monospecific antibodies.
(§4) As a cell line for the comparison of cell-binding ability, CHO-huROR1-huB7-H3 cell line (obtained by transfecting the ROR1-CHO recombinant cell line (BPS Bioscience) with the human B7-H3 gene (Origene) and selecting for the desired gene-inserted single cells using G418), which stably transfected the human ROR1 and human B7-H3 gene to artificially overexpress both human ROR1 and human B7-H3 proteins were used, and analysis was performed using a flow cytometer (LSRFortessa X-20, BD Biosciences). Specifically, after dissociating and washing the overexpressing cell line with PBS, the cell number was counted, and the cells were seeded at a density of 2×10⁵ cells per well into a V-bottom 96-well plate (96 Well Plate-RV, Bioneer, 910D09). Antibodies diluted 4-fold starting from 100 nM in 1% BSA solution were added at 100 μL per well to the centrifuged cells and incubated at 4° C. for 1 hour. […] After the reaction, the cells were washed twice with the same buffer, resuspended in 100 μL of PBS, and analyzed using a FACS instrument. A total of 10,000 cells were detected per measurement, and the data was analyzed using FlowJo software. […]

[10] = biological target: T1, human ROR1 protein (ROR1-His; Sino …); assay: ELISA, plate coated with ROR1-His (1 ug/ml), bound antibody detected with HRP-conjugated anti-Fab polyclonal antibody, OD at 450 nm; upper table (the graph's legend names the third curve M8_N97G)
Method: as §1, §2

[11] = biological target: T1, human ROR1 protein (ROR1-His; Sino …); assay: SACE ELISA on human ROR1-His; antibody stored 2 weeks at 4°C
Method: as §1
as §2, with “Devices). […]” for “Devices).”

[12] = biological target: T3, human ROR1 on cells (NCI-N87, CHOK1-hROR1, AGS, CHO-huROR1-huB7-H3) (human, UniProt Q01973 30-937); assay: flow cytometry on CHO-huROR1-huB7-H3 cells, FITC anti-human IgG, MFI over secondary antibody only
T3 construct: whole, on cells; also called cell surface ROR1
Text: as §3, §4

B1: BA6 antibody (WT) (antibody, V domains shown)
VH: EVQLLESGGGLVQPGGSLRLSCAASGFTFSNYDMSWVRQAPGKGLEWVSAIYHSGSSKYYADSVKGRFTISRDNSKNTLYLQMNSLRAEDTAVYYCARGGNGAWDTGFDYWGQGTLVTVSS
VL: QSVLTQPPSASGTPGQRVTISCSGSSSNIGSNDVSWYQQLPGTAPKLLIYYDNNRPSGVPDRFSGSKSGTSASLAISGLRSEDEADYYCGAWDDSLSGYVFGGGTKLTVL
notes: Anti-ROR1 antibody from WO2019-225992 A1, said to be based on IgG1; only the variable domains are tied to the monospecific IgG; also called BA6 IgG (WT); parental clone
B1 was tested, and the EC50 [1] was 293 pM, the EC50 [2] was 217 pM and the EC50 [3] was 1000 pM. For the same binder, the EC50 [4] was 261 pM, the EC50 [5] was 293 pM and the EC50 [6] was 215 pM. The EC50 [7] was 707 pM and the “Ratio (EC50, 4°C sample against 37°C sample)” value [8] was 83.1%.

B2: B5 (antibody, V domains shown)
VH: EVQLLESGGGLVQPGGSLRLSCAASGFTFSDYAMSWVRQAPGKGLEWVSSISSGSGSIYYADSVKGRFTISRDNSKNTLYLQMNSLRAEDTAVYYCAKNLIPLDYWGQGTLVTVSS
VL: B1 VL with D33A, D52N, N53S, N54H, A91S, D94A, S97N, G98A
notes: also called anti-B7-H3 monospecific antibody B5; anti-B7-H3 antibody clone B5 (WO2019-226017 A1)
With B2 the “EC50 (read off the curve)” value [9] was about 1000 pM.

B3: BA6 IgG(NA) (antibody, V domains shown)
VH: B1 VH
VL: QSVLTQPPSASGTPGQRVTISCSGSSSNIGSNDVSWYQQLPGTAPKLLIYYDNNRPSGVPDRFSGSKSGTSASLAISGLRSEDEADYYCGAWDDSLSGYVFGGGTKLTVLG
Binder B3 has an EC50 [1] of 299 pM.

B4: M1 (PTM mutant of BA6 IgG) (antibody, V domains shown)
VH: B1 VH
VL: B1 VL with D52A
notes: IgG of BA6 with one mutation
With B4 the EC50 [5] was 326 pM.

B5: M10 (PTM mutant of BA6 IgG) (antibody, V domains shown)
VH: B1 VH with N101Y
VL: B1 VL
notes: IgG of BA6 with one CDRH3 mutation; Kabat H97 (same column as M9)
With B5 the EC50 [7] was 2760 pM.

B6: M6 (PTM mutant of BA6 IgG) (antibody, V domains shown)
VH: B1 VH with G102V
VL: B1 VL
notes: IgG of BA6 with one CDRH3 mutation
For B6, the EC50 [5] was 955 pM.

B7: M8 (PTM mutant of BA6 IgG) (antibody, V domains shown)
VH: B1 VH with N101G
VL: B1 VL
notes: as for B5
Work on B7 yielded an EC50 [7] of 7560 pM.

B8: M5 (PTM mutant of BA6 IgG) (antibody, V domains shown)
VH: B1 VH with G102Y
VL: B1 VL
notes: as for B6
In the case of B8, the EC50 [5] is reported as 3270 pM.

B9: M9 (PTM mutant of BA6 IgG) (antibody, V domains shown)
VH: B1 VH with N101S
VL: B1 VL
notes: IgG of BA6 with one CDRH3 mutation; Kabat H97
B9 gave an EC50 [10] of 1080 pM.

B10: M7 (PTM mutant of BA6 IgG) (antibody, V domains shown)
VH: B1 VH with G102R
VL: B1 VL
notes: as for B6
B10 showed an EC50 [1] of 12500 pM.

B11: M3 (PTM mutant of BA6 IgG) (antibody, V domains shown)
VH: B1 VH
VL: B1 VL with D52E
notes: IgG of BA6 with one mutation; Kabat L51
B11 showed an EC50 [3] of 755 pM, an EC50 [5] of 333 pM and an EC50 [6] of 189 pM. It also gave an EC50 [7] of 478 pM.

B12: BA6M11 anti-ROR1 antibody (IgG) (antibody, V domains shown)
VH: B1 VH with N101S
VL: B1 VL with D52E
notes: IgG form; also called BA6 IgG (M11); double mutant D51E (LC)+N97S (HC)
In the case of B12, the EC50 [4] is reported as 129 pM, the EC50 [6] is reported as 144 pM and 133 pM and the EC50 [11] is reported as 166 pM. The “Ratio (EC50, 4°C sample against 37°C sample)” value [8] was 129% and the “EC50 (read off the curve)” value [12] was about 700 pM.

B13: M2 (PTM mutant of BA6 IgG) (antibody, V domains shown)
VH: B1 VH
VL: B1 VL with D52T
notes: as for B11
B13 was tested, and the EC50 [5] was 10200 pM.

B14: M4 (PTM mutant of BA6 IgG) (antibody, V domains shown)
VH: B1 VH
VL: B1 VL with D52S
notes: as for B11
For B14, the EC50 [5] was 10200 pM.

Reference: patent US20260015418A1 (ABL BIO, published 2026)
